{"source": "paper PMC8257255", "about": "“Soluble Fas ligand drives autoantibody-induced arthritis by binding to DR5/TRAIL-R2” (eLife, 2021)", "binders": {"B1": {"name": "recombinant human soluble Fas ligand (His-tagged) (ligand, UniProt P48023 130-281, looked up)", "chain": "QIGHPSPPPEKKELRKVAHLTGKSNSRSMPLEWEDTYGIVLLSGVKYKKGGLVINETGLYFVYSKVYFRGQSCNNLPLSHKVYMRNSKYPQDLVMMEGKMMSYCTTGQMWARSSYLGAVFNLTSADHLYVNVSELSLVNFEESQTFFGLYKL", "notes": "Fas ligand (TNFSF6), human, soluble recombinant form; also called sFasL; rhFasL; source: bought: R&D Systems (126-FL)"}}, "target": "T1, Recombinant Human TRAIL R2/TNFRSF10B Fc Chimera Protein (human, UniProt O14763 56-210)", "T1 construct": "TNFRSF10B (DR5, TRAIL R2), human, fused to Fc; also called rhDR5–Fc; DR5–Fc; source: bought: R&D Systems (631-T2)", "experiment": "SPR; Biacore T100; recombinant DR5 (R&D 631-T2-100) coupled to a CM5 chip in 10 mM sodium acetate pH 5.5; recombinant FasL or TRAIL passed over at 30 μL/min for 120 s; empty flow cell subtracted; equilibrium affinity measurements", "details": "both partners purified"}
{"binder": "B1", "values": [{"measurement": "Kd", "value": 1.23, "unit": "pM"}]}
